Source: publication PMC3176765, “Mechanism of the Interaction between the Intrinsically Disordered C-Terminus of the Pro-Apoptotic ARTS Protein and the Bir3 Domain of XIAP” (PLoS ONE, 2011)
Values belong to the molecule of their own block, whether it stands above or below them. Positions of bridges follow the written chain, without caps; N, C: chain ends. Residues, ends and D or L forms follow the SMILES beside them. Chains are numbered I, II in the order given. No end group written: not given here. *: point of attachment. 5FAM = O=C1OC2(c3ccc(O)cc3Oc3cc(O)ccc32)c2ccc(C(=O)*)cc21

Key:
[1] = target: T1, Bir3 subunit of the XIAP (residues 252–350) (Homo sapiens, UniProt P98170); assay: Fluorescence spectroscopy binding of dimeric fl-ARTS 266–274 to Bir3 (Hill equation fit); settings: fluorescence titration with Bir3; 20 mM Hepes pH 7.4, 45 mM NaCl, 10°C; Hill model, apparent averaged Kd; read-out: K d of dimeric peptide, fit to the Hill equation
T1 construct: The pET-21b(+) vector containing XIAP (252–350) Bir3 domain with a C-terminal His Tag; His tag (C); made in house; host or cells: E. coli BL21 Star (DE3)
T1 sequence (P98170 252-350): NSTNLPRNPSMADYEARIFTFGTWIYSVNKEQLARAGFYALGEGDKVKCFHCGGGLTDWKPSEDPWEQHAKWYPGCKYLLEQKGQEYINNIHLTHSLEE
Method: The importance of Cys273 residue for Bir3 binding raised the question of whether disulfide bond formation is involved in the interaction with Bir3. Addition of a reducing agent weakened the interaction between the ARTS derived peptides and Bir3 (Figure 4A). This raised the possibility that a disulfide bond is formed between two ARTS peptide molecules to form an active dimer. To test this, a covalent dimer of ARTS 266–274 was prepared by forming a disulfide bond between the Cys273 residues of two peptide monomers. MS gave a single peak corresponding the mass of the dimer (data not shown). […] Changes in the chemical shift of the sequentially following His274 and preceding Gln272 were also observed. Binding of Bir3 to the dimeric fl-ARTS 266–274 was studied using fluorescence spectroscopy (Fig. 6C). […]
Measurements were performed at 10°C by using a PerkinElmer LS-50b luminescence spectrofluorimeter equipped with a Hamilton microlabM dispenser as described in [44]. The fluorescently labeled peptide concentrations were determined by using a UV spectrophotometer (Shimadzu, Kyoto, Japan). […] Additions of 5 µl were titrated at 90 sec intervals, the solution was stirred for 15 sec, and the fluorescence and anisotropy were measured after each addition by using an excitation wavelength of 480 nm and an emission wavelength of 530 nm. […]

[2] = target: Dimer fl-ARTS 266-274 (human); assay: other fluorescence titration; Bir3 titrated into dimeric fl-ARTS 266-274; fluorescence fit to the Hill equation; apparent averaged Kd; 20 mM Hepes pH 7.4, 45 mM NaCl, 10°C
[3] = target: T1, Bir3 subunit of the XIAP (residues 252–350); assay: Fluorescence anisotropy binding of fluorescein-labeled ARTS peptides to Bir3 (1:1 binding model); settings: Bir3 titrated into fluorescein-labeled peptide, 20 mM Hepes pH 7.4, 45 mM NaCl, 10°C, no reducing agent, fit to 1:1 binding model, nb = no binding detected
Method: Fluorescence anisotropy was used to characterize the interaction between ARTS CTD and the Bir3 subunit of XIAP. ARTS CTD (residues 248–274) was synthesized using standard Fmoc chemistry and labeled with fluorescein at its N-terminus. The Bir3 subunit of the XIAP (residues 252–350) was expressed with a His-tag at the C-terminus and purified (see materials and methods and Figure S1). The binding experiments were done in 20 mM Hepes buffer, pH 7.4, 45 mM NaCl, at 10°C. Bir3 was titrated into fl-ARTS CTD and the data were fit to 1∶1 binding model resulting in K d = 8.0±0.7 µM (Figure 4A).
The pET-21b(+) vector containing XIAP (252–350) Bir3 domain with a C-terminal His Tag was transformed into E. coli strain BL21 Star^+ (DE3) (Novagen). Cells were grown at 37°C in LB medium to an optical density (600 nm) of ∼0.6 and induced with 0.4 mM isopropyl-β-D-1-thiogalactoside (IPTG). Cells were harvested after 8 h of incubation at 37°C and were lysed by Microfluidizer (Microfluidics). The protein was purified on HiTrap nickel-Sepharose FF column (100×10 mm, GE Healthcare), using an FPLC system (ÁKTA explorer, Amersham Biosciences). The eluted protein was further purified by filtration on a Sephacryl S100 column (950×26 mm; Amersham Biosciences). The protein was stored in 20 mM Hepes pH 7.4, 50 mM NaCl, 10 mM βME, 0.02% sodium azide and was dialyzed before experimental use.
Measurements were performed at 10°C by using a PerkinElmer LS-50b luminescence spectrofluorimeter equipped with a Hamilton microlabM dispenser as described in [44]. The fluorescently labeled peptide concentrations were determined by using a UV spectrophotometer (Shimadzu, Kyoto, Japan). The fluorescein-labeled ARTS derived peptides were dissolved in 20 mM Hepes buffer, pH 7.4 and 45 mM NaCl. 1 ml of the labeled peptide solution was placed in a cuvette, and the non-labeled Bir3 (200 µl, 150 µM) was placed in the dispenser. Additions of 5 µl were titrated at 90 sec intervals, the solution was stirred for 15 sec, and the fluorescence and anisotropy were measured after each addition by using an excitation wavelength of 480 nm and an emission wavelength of 530 nm. Dissociation constants (K d) were calculated by fitting the fluorescence titration curves (corrected for dilution) or fluorescence anisotropy curves to 1∶1 binding model using KALEIDAGRAPH (Synergy Software, Reading, PA). The following equation was used for the single-site model of the fluorescence results: [drawing 1] Where, F0 is the initial fluorescence, ΔF is the amplitude of the fluorescence change from unbound and bound states, K d is the dissociation constant and [Bir3] is the added concentration of Bir3 domain. A similar equation was used to fit the anisotropy results by replacing the fluorescence (F) with anisotropy (R) changes.

[4] = target: T2, Bir3 domain of XIAP (residues 252-350) with a C-terminal His tag (UniProt P98170 252-350); assay: fluorescence polarisation; non-labeled Bir3 (200 µl, 150 µM) titrated in 5 µl additions into 1 ml of fluorescein-labeled peptide; 20 mM Hepes pH 7.4, 45 mM NaCl, 10°C; fit to 1:1 binding model; settings: both partners purified
T2 construct: Stored with 10 mM beta-mercaptoethanol and dialysed before experimental use; also called Bir3 subunit of XIAP; XIAP (252-350); source: E. coli BL21 Star (DE3), purified (nickel-Sepharose, Sephacryl S100 gel filtration)
T2 sequence (P98170 252-350): as above

[5] = target: T2, Bir3 domain of XIAP (residues 252-350) …; assay: NMR titration; TOCSY spectra of free and Bir3-bound ARTS CTD compared; peptide 0.5-1.5 mM, 20 mM deuterated Hepes, 45 mM potassium chloride, pH 6.8, 12°C; settings: both partners purified
[6] = target: the molecule itself; assay: SEC; analytical gel filtration of ARTS CTD 248-274 (1-2 mM) without DTT; 20 mM Hepes pH 7.4, 50 mM NaCl, 4°C; peaks identified by mass spectrometry; monomer to dimer
[7] = target: T2, Bir3 domain of XIAP (residues 252-350) …; assay: fluorescence polarisation; non-labeled Bir3 (200 µl, 150 µM) titrated in 5 µl additions into 1 ml of fluorescein-labeled peptide; 20 mM Hepes pH 7.4, 45 mM NaCl, 10°C; fit to 1:1 binding model; settings: both partners purified; remark: listed apart in the source

Molecule: NC(=O)CC[C@H](NC(=O)CNC(=O)[C@H](CCC(N)=O)NC(=O)[C@H](Cc1c[nH]cn1)NC(=O)[C@H](CCC(=O)O)NC(=O)[C@H](CCC(N)=O)NC(=O)c1ccc2c(c1)C(=O)OC21c2ccc(O)cc2Oc2cc(O)ccc21)C(=O)NCC(=O)N[C@@H](CSSC[C@H](NC(=O)CNC(=O)[C@H](CCC(N)=O)NC(=O)CNC(=O)[C@H](CCC(N)=O)NC(=O)[C@H](Cc1c[nH]cn1)NC(=O)[C@H](CCC(=O)O)NC(=O)[C@H](CCC(N)=O)NC(=O)c1ccc2c(c1)C(=O)OC21c2ccc(O)cc2Oc2cc(O)ccc21)C(=O)N[C@@H](Cc1c[nH]cn1)C(=O)O)C(=O)N[C@@H](Cc1c[nH]cn1)C(=O)O [Dimer fl-ARTS 266–274] (I: 5FAM-QEHQGQGCH-OH / II: 5FAM-QEHQGQGCH-OH; disulfide I:8-II:8)
Kd [1]: 2400 ± 100 nM

Molecule: Bir3 domain of XIAP (residues 252-350) with a C-terminal His tag (from UniProt P98170 252-350) (domain or fragment)
Kd [2]: 2400 nM

Molecule: PPGAVKGTG [fl-ARTS 257–265, fluorescein-labeled peptide of ARTS residues 257–265]
K d (µM), binding affinity to Bir3 [3]: nb
K d (µM), binding affinity to Bir3 ([3]; listed as ARTS 257–265): did not

Molecule: YGPSLRLLA [fl-ARTS 248–256, fluorescein-labeled peptide of ARTS residues 248–256]
K d (µM), binding affinity to Bir3 [3]: nb
K d (µM), binding affinity to Bir3 ([3]; listed as ARTS 248–256): did not

B4: fl-ARTS 266-274 E267A (peptide)
peptide: {5'/6'‑carboxyfluorescein}-QAHQGQGCH
notes: numbers count on: ARTS/Sept4_i2 (GenBank AAG45673.1); source: synthetic peptide
Kd [4]: 3600 ± 800 nM

B5: ARTS CTD 248-274 (not labelled) (peptide)
peptide: YGPSLRLLAPPGAVKGTGQEHQGQGCH
notes: numbers count on: ARTS/Sept4_i2 (GenBank AAG45673.1); also called ARTS C-terminal domain; source: synthetic peptide
binding result [5]: binds
stoichiometry N [6]: 2

B6: fl-ARTS 266-274 (peptide)
peptide: {5'/6'‑carboxyfluorescein}-QEHQGQGCH
notes: numbers count on: ARTS/Sept4_i2 (GenBank AAG45673.1); also called ARTS 266-274 monomer; source: synthetic peptide
Kd [7]: 2900 ± 300 nM
Kd [4]: 2500 ± 300 nM

B7: fl-ARTS 248-274 (peptide)
peptide: {5(6)‑carboxyfluorescein}-YGPSLRLLAPPGAVKGTGQEHQGQGCH
notes: numbers count on: ARTS/Sept4_i2 (GenBank AAG45673.1); also called fl-ARTS CTD; fluorescein-labeled ARTS CTD 248-274; source: synthetic peptide
Kd [4]: 8000 ± 700 nM

More lines, now with the values ahead:

K d (µM), binding affinity to Bir3 [3]: nb
K d (µM), binding affinity to Bir3 ([3]; listed as ARTS 266–274 H268A): did not bind
Molecule: QEAQGQGCH [fl-ARTS 266–274 H268A, alanine-scan analogue of fl-ARTS 266–274]

K d (µM), binding affinity to Bir3 [3]: nb
K d (µM), binding affinity to Bir3 ([3]; listed as Cys273A): did not bind
Molecule: QEHQGQGAH [fl-ARTS 266–274 C273A, alanine-scan analogue of fl-ARTS 266–274]

Kd [4]: 1300 ± 200 nM
B1: fl-ARTS 266-274 Q271A (peptide)
peptide: {5'/6'‑carboxyfluorescein}-QEHQGAGCH
notes: as for B4

Kd [4]: 800 ± 300 nM
B2: fl-ARTS 266-274 H274A (peptide)
peptide: {5'/6'‑carboxyfluorescein}-QEHQGQGCA
notes: as for B4

Kd [4]: 900 ± 100 nM
B3: fl-ARTS 266-274 Q266A (peptide)
peptide: {5'/6'‑carboxyfluorescein}-AEHQGQGCH
notes: as for B4

Kd [4]: 1000 ± 300 nM
B8: fl-ARTS 266-274 Q269A (peptide)
peptide: {5'/6'‑carboxyfluorescein}-QEHAGQGCH
notes: as for B4
